Experimental data as given in patent US20260258115A1 (MAPP BIOPHARMACEUTICAL, published 2026).

Tests used:
[1] = biological target: RSV F on RSV-A2 virus (Respiratory syncytial virus, RSV-A2, UniProt P03420 26-574); experiment: cell-based or functional assay
[2] = biological target: RSV prefusion F (preF), DS-Cav1 (Respiratory syncytial virus, UniProt P03420 26-513); experiment: BLI, IgG on anti-human IgG sensor
[3] = biological target: RSV postfusion F (postF), F ΔFP (Respiratory syncytial virus, UniProt P03420 26-513); experiment: BLI, IgG on anti-human IgG sensor, 100 nM antigen
[4] = biological target: T1, RSV F on RSV subtype A virus (RSV-A2) (Respiratory Syncytial Virus, subtype A, …, UniProt P03420 26-574); experiment: cell-based or functional assay
[5] = biological target: RSV F on RSV subtype B virus (mKate-RSV B 18537) (Respiratory Syncytial Virus, subtype B, …, UniProt P13843 26-574); experiment: cell-based or functional assay
[6] = biological target: T1, RSV F on RSV subtype A virus (RSV-A2); experiment: cell-based or functional assay; remark: listed apart in the source
[7] = biological target: T2, RSV prefusion F (preF), DS-Cav1 stabilized trimer, subtype A (Respiratory Syncytial Virus, subtype A, UniProt P03420 26-513); experiment: BLI, IgG on anti-human IgG sensors, 100 nM antigen, apparent KD
[8] = biological target: T3, RSV postfusion F (postF), F ΔFP trimer, subtype A (Respiratory Syncytial Virus, subtype A, UniProt P03420 26-513); experiment: as above
[9] = biological target: T3, RSV postfusion F (postF), F ΔFP trimer, …; experiment: BLI, IgG (Table 9A)
[10] = biological target: T2, RSV prefusion F (preF), DS-Cav1 …; experiment: BLI, apparent IgG KD (Table 9A)
[11] = biological target: RSV postfusion F (postF), F deltaFP (respiratory syncytial virus, UniProt P03420 26-513); experiment: BLI, IgG on sensor, 100 nM antigen
[12] = biological target: RSV prefusion F (preF), DS-Cav1 (respiratory syncytial virus, UniProt P03420 26-513); experiment: BLI, IgG on sensor
[13] = biological target: RSV fusion glycoprotein (RSV F) on RSV-A2 virus (respiratory syncytial virus, UniProt P03420 26-574); experiment: cell-based or functional assay

Row | Binder | Neutralization - RSV A2 IC50 (pM) [4] [pM] | neut IC50 (ug/ml) subtype A (graham) [4] [µg/mL] | neut IC50 (ug/ml) subtype B (graham) [5] [µg/mL] | Neutralization IC50 (RSV subtype A) [6] [µg/mL] | Kd [7] [nM] | Kd [8] [nM] | also measured
1 | ADI-41610 (antibody, V domains shown, also called Ab 884; Antibody Number 884) VH: EVQLLESGGGVVQPGRSLRLSCAASELSFRNYGMHWVRQAPGKGLEWVAVISYDGNDKYYADSVKGRFTISRDNSKKTLYLQMDSLRAEDTAVYYCAKEGAYCGGDCFSSWGQGTLVTVSS VL: GIQLTQSPSSLSASVGDRVTITCRASQSSSSYLNWYQQKPGKAPKLLIYAASSLQSGVPSRFSGSGSGTDFTLTISSLQPEDFATYYCQQSYSFGGGTKVEIK |  |  |  |  |  |  | Neutralization IC50 (RSV subtype A) [1]: > 25 µg/mL; binding result [2]: no binding (tested: 100 nM antigen); Kd [3]: 0.978 nM
2 | ADI-41582 (antibody, V domains shown, also called Ab 856; Antibody Number 856) VH: EVQLVESGPGLVKPSQTLSLTCTVSGGPISSGVYYWSWIRQHPGKGLESIGYIYYSGSTHYNPSLKTRVTISLDTSKNQFSLKLSSVTAADTAVYYCARGCSGGSCYLYAFDIWGQGTTVTVSS VL: QPVLTQPPSVSVAPGQTARITCGGNNIGTKSVHWYQQKPGQAPLLVVYDDSDRPSGIPERFSGSNSGNTATLTISRVEAGDEADFYCQVWDYATDHVVFGGGTKLTVL |  |  |  |  |  |  | Neutralization IC50 (RSV subtype A) [1]: > 25 µg/mL; binding result [2]: no binding (tested: 100 nM antigen); Kd [3]: 0.911 nM
3 | ADI-41576 (antibody, V domains shown, also called Ab 851; Antibody Number 851) VH: QVTLKESGPTLVKPTQTLTLSCSFSGFSLSAYAVGVGWIRQPPGKALEWLALIYWDDDKRYSPSLETRLTITKDTSKNQVVLTMTKMDPVDTATYYCVYSYNGYYEYMDVWGNGTTVTVSS VL: DIVMTQSPATLSLSPGERATLSCRASQSVSNYLAWYQQKPGQAPRLLISGASNRATGIPDRFSGSGSGTDFTLTITTPEPEDFAVYYCQQRNAWPRTFGQGTKVEIK |  |  |  |  |  |  | Neutralization IC50 (RSV subtype A) [1]: > 25 µg/mL; binding result [2]: no binding (tested: 100 nM antigen); Kd [3]: 1.43 nM
4 | ADI-20998 (antibody, V domains shown) VH: QVQLVQSGGGVVQPGRSLRLSCAASGFTLSTYGMHWVRQAPGKGLEWVAVIYYDESNKFYADSVQGRFTISRDDSKNTLFLQMNSLRAEDTAVYYCARESRPRGYSYSDFDSWGQGTLVTVSS VL: QPGLTQPRSVSGSPGQSVTISCTGTSSDVGTFNYVSWYQQHPGKAPKLMIYDVNQRPSGVPDRFSGSKSGNTASLTISGLQAEDEADYYCCAYAGYYSFGGGTKLTVL | 74 | 0.03 | > 25 |  |  |  | 
5 | ADI-41842 (antibody, V domains shown, also called Ab 942; Antibody Number 942) VH: QVQLVQSGAEVKKPGASVRVSCKASGYTFTHYDINWVRQAPGQGLEWMGWINPNSGDTDYAQKFQGRVTMTVDTSISTAYLDLRSLTSADAAVYYCARGGAYATNGYYIIWFDPWGQGTLVTVSS VL: DIVVTQSPSSLSASVGDRVTITCRASQSISRYLNWFQKKPGKAPHLLIYAASILQSEVPSRFSGSGSGTDFTLTISSLQPEDFATYYCQQSYNSPYTFGPGTKVDIK |  |  |  | > 25 | 0.717 | 0.442 | 
6 | ADI-41818 (antibody, V domains shown) VH: EVQLVESGGGLVQPGGSLRLSCAASGFTVNTNYMSWVRQAPGKGLEWVSIIYSSGSTSYADSVKGRFTISRDNSENTLYLQMHTLRAEDTAVYYCVRERTPFYYVSSGYWDSWGQGTLVTVSS VL: EIVLTQSPGTLSLSPGERATLSCRASQSVDSSYLAWYQQKPGQAPRLLIFGASSRATGIPDRFSGSGSGTDFTLTISRLEPEDFAVYYCQQYGFSYTFGQGTKVEIK |  |  |  | > 25 | 0.676 | 0.347 | 
7 | ADI-20964 (antibody, V domains shown) VH: QVQLVQSGAEVKKPGASVKVSCKASGYTFTHYGISWVRQAPGQGLEWMGWISAYNGNTNYAQKLQGRVTMTTDTSTSTAYMEVRSLRYDDTAVYYCARDVPVEAATSPEFWGQGTLVTVSS VL: DIVMTQTPLSLPVTLGQPASISCRSSQSLVYSDGNTYLSWFQQRPGQSPRRLIYKVSNRDSGVPNRFSGSGSGTDFTLKISRVEAEDVGVYYCVQNTHWPAYTFGQGTKVEIK | 162 | 0.06 | 0.14 |  |  |  | binding result [9]: no binding; Kd [10]: 0.36 nM
8 | ADI-41350 (antibody, V domains shown, IgG1) VH: EVQLVESGAGLVQPGGSLRLSCAASGFTFSTYAVSWVRQAPGKGLEWVSAISGSGASTYFADSVKGRFTISRDNSKNTLYLQMNSLRAEDTAVYYCAKARLELRPYYYGMDVWGQGTTVTVSS VL: QPVLTQPASVSGSPGQSITISCTGTSSDVGGYNFVSWYQQHPGKAPKLIIYEVSNRPSGVSNRFSGSKSGNTASLTISGLQAEDEADYYCSSSTLSTTYVFGTGTKVTVL |  |  |  |  |  |  | Kd [11]: 0.602 nM; binding result [12]: no binding (tested: 100 nM antigen); Neutralization IC50 (RSV subtype A) [13]: > 25 µg/mL
9 | ADI-20974 (antibody, V domains shown) VH: EVQLVESGGGLVKPGGSLRLSCAASGFSFSSYQINWVRQAPGKGLEWVSSISGGSSYTDYADSIKGRFTISRDNAKKSAFLQMKSLRADDTAVYYCARALMATAGGLAFDIWGQGTMVTVSS VL: QPVLTQPPSVSGAPGQRVTISCTGSGSNIGAGYDVHWYQQVPGTAPKLLILRNTNRPSGVPDRFSGSKSGTSASLAITGLQAEDEADYYCQSYDRSLSVVFGGGTKLTVL | 75.4 | 0.003 | 0.09 |  |  |  | binding result [9]: no binding; Kd [10]: 0.29 nM
10 | ADI-14334 (antibody, V domains shown) VH: EVQLVESGGGLVKPGGSLRLSCAASGVTVSSYYMTWVRQAPGKGLEFISDISSSSTYTNYADSVKGRFTISRDNAKSSLYLQMNNLRAEDTAVYYCARLGITVTGVGYFDLWGRGTLVTVSS VL: QPGLTQPPSVSGAPGQRVTISCTGSSSNIGAGYDVHWYQQLPGTAPKLLIHDNNNRPSGVPDRFSGSKSGTSASLAITGLQVEDEADYYCQSYDSSLSNYVFGTGTKLTVL | 189 | 0.05 | 0.11 |  |  |  | 
11 | ADI-41814 (antibody, V domains shown, also called Ab 921; Antibody Number 921) VH: EVQLLESGPTLVKPTQTLTLTCTFSGFSLSTFGVGVGWIRQPPGKALECLALIYWDDDKRYSPSLKSRLTITRDTSKNQVVLTMTNMDPVDTATYYCAHRRSSTVTTGFFDYWGRGTLVTVSS VL: QPVLTQPPSVSGAPGQRVTVSCTGNSSNIGAGHGAHWYQQLPGTAPKLLIYGSTDRPSGVPDRFFGSQSGTSASLVITELRAEDEADYYCQSFDSSLSIWVFGGGTKLTVL |  |  |  | > 25 | 3.39 | 0.915 | 
12 | ADI-41574 (antibody, V domains shown, also called Ab 850; Antibody Number 850) VH: QITLKESGPTLVKPTQTLTLTCTFSGFSLSTSGVGVAWIRQPPGKALEWLALIYWDDDKRYSPSLKSRLTITKDTSKNQVVLTMTNMDPVDTATYYCAHSSVYTTPFDYWGQGSLVTVSS VL: DIQLTQSPSTLSASVGDRVTITCRASQSISDWLAWYQQKPGKAPKLLIYKAFTLESGVPSRFSGSGSGTEFTLTISSLQPDDFATYYCQQYTSYWTFGQGTKVEIK |  |  |  |  |  |  | Neutralization IC50 (RSV subtype A) [1]: > 25 µg/mL; binding result [2]: no binding (tested: 100 nM antigen); Kd [3]: 123 nM
13 | ADI-41841 (antibody, V domains shown) VH: EVQLLESGGGLVKPGGSLRLSCAASGFSFSYYSMNWVRQTPGKGLEWVSSISDRSSYISYADSVKGRFTISRDNAKNSLYLQMNSLRAEDTAVYYCARDQYESYAFDIWGQGTTVTVSS VL: DIQVTQSPSSLSASVGDRITITCQASQDVGNYLNWYQQKVGKAPKLLIHDASDLETGVPSRFSGSGSGTYFTFTISSLQPEDFATYYCQPYDNLRPVTFGQGTRLEIK |  |  |  | 0.04 | 0.121 | 0.265 | 
14 | ADI-41817 (antibody, V domains shown) VH: QVQLVQSGAEVKKPGESLKISCKGPGYSFTTYWIGWVRQMPGKGLEWMGIIYPGDSDTKYSPSFQGQVTITADKSIATAYLQWSRLKASDTAVYYCATVVTYADNIRWFDSWGQGTLVTVSS VL: QSALTQPASVSGSPGQSITISCTGTSGDVGGYKFVSWYQHHPGKAPKLVIYDVANRPSGVSDRFSGSKSGTTASLTISGLQAEDEADYYCSSYTSSSTYVFGTGTKVTAL |  |  |  | > 25 | 6.94 | 15.8 | 
15 | ADI-14583 (antibody, V domains shown) VH: QVQLVQSGAEVKEPGASVKVSCKASGYTFTNYGISWVRQAPGQGLEWLGWISAYNGNIHYAQKVQGRVTMTTDTSTSTGFMELRSLRSDDTAVYYCAREPPVIAAGDFQHWGQGTLVTVSS VL: ETTLTQSPLSLPVTLGQPASISCRSSQSLVHSNGNTYLSWFQQRPGQSPRRLIYRVSNRDSGVPDRFSGSGSGTDFTLKISRVEAEDVGLYYCMQGTHWPPDFGQGTRLEIK | 125 | 0.05 | 0.06 |  |  |  | 
